Laboratory results from US7264809B1, “Methods of inhibiting platelet activation and recruitment” (Immunex Corporation, priority 1998, dated 2007).
Substitutions are numbered along the chain they refer to. Names may count otherwise.

How the values were obtained:
murine platelets = test: Ex vivo aggregation of murine platelets; assay type: in vivo, C57BL/6J mice; settings: PRP 1 hour after soluble CD39 4 mg/kg or aspirin 5 mg/kg
Experimental: C57BL/6J mice (6-8 wk) were obtained from Jackson Laboratories (Bar Harbor, Me.). […] 80 μL of 3.8% trisodium citrate was added to each mL of blood. […] The PRP contained 400-700×10^3 platelets per μL. All experiments were completed within 2 hours of blood collection. PRP (200 μL) was preincubated, for 3 min. at 37° C., with 100 μL Tris-buffered saline buffer ([…], 5 mM glucose, pH 7.4) in an aggregometer cuvette (Lumiaggregometer; Chrono-Log, Havertown, Pa.), and the platelet agonists ADP, collagen, or sodium arachidonate were added at the final concentrations indicated.

[1] = Murine model of stroke (middle cerebral artery occlusion); assay type: in vivo, mice
Experimental: Anesthetized mice were maintained at 37±2° C. during and for 90 min following surgery. A midline neck incision was made and the right carotid artery exposed. Middle cerebral artery occlusion was accomplished by advancing a 13-mm heat-blunt tipped 6-0 nylon suture via an arteriotomy in the external carotid stump. The external carotid artery was cauterized to secure hemostasis, and arterial flow reestablished. […] Surgical staples were used for wound closure. […]

platelets [2] = test: Platelet aggregation in human platelet-rich plasma; assay type: cell-based
Experimental: After obtaining informed consent from volunteers, blood was collected via plastic tubing using acid citrate-dextrose (38 mM citric acid; 75 mM sodium citrate; 135 mM glucose) as anticoagulant. Where indicated, volunteers had ingested 650 mg acetylsalicylic acid (ASA) 18 h prior to blood donation. […] The stock suspension of PRP was maintained at room temperature under 5% CO2-air. […] Total volumes were adjusted to 300 μl with TSG buffer (Marcus et al., J. Clin. Invest. 88:1690, 1991; Marcus et al., J. Clin. Invest. 99:1351, 1997). […] A mock-treated sample was also prepared in which the FSBA solution was replaced with water. After incubating at 37° for 90 min., the samples were centrifuged in a Centricon-10 filter unit (Amicon Corp.) for 1 hour at 5,500 rpm and buffer exchanged into PBS to remove unreacted material.

[3] = Phosphate release assay for ATPase activity; assay type: biochemical; settings: for ATPase activity, CPM × 10^3 (net counts): Table 3, 5-day 1× COS-1 sups; for ATPase activity, CPM Release × 10^3 (net counts): unconcentrated COS-1 CM
Experimental: This example describes an ATPase assay that may be used to track enzyme activity. Samples (approximately 100 μl of either concentrated CM or purified polypeptide) are combined with 20 μl of 10× assay buffer (200 mM HEPES, 1.2 M NaCl, 50 mM KCl, 15 mM CaCl2, 15 mM MgCl2 and 3 mM ATP) and sterile water is added to a final volume of 200 μl. Radiolabeled ATP (0.8 μCi γ [^32P] ATP; Amersham, Arlington Heights, Ill.) is added and the mixture incubated for 20 minutes at 37° C. […] After centrifugation (14K rpm for 10 minutes), the supernatant is assayed for free ^32P using a scintillation counter. Data are expressed as raw counts or net counts, or as picomoles of ATP degraded per minute. […] The transfections were repeated and the CM (10, 20 and 30 μL, unconcentrated) was assayed essentially as described in Example 7. […] ATPase levels in CM from COS-1 cells transfected with pIL2LFlagSolCD39 increased with time in culture over at least 4 days post-transfection. To determine whether activity was affected by removal of the N-terminal FLAG® tag, COS-1 cells were transfected with pIL2LFlagSolCD39 and pIL2LSolCD39 and supernatants (sups) were harvested after 5 days. Samples of 10, 20 and 30 μL of 1× sups were assayed for ATPase activity as described in Example 7. […] The expression of Trim1 and Trim2 constructs was analyzed in COS-1 cells cultured in 10 cm plates. After 5 days of incubation, 1× supernatants were examined via ELISA (using anti-CD39) and the phosphate-release assay described in Example 7. […] Expression levels, however, appeared to be reduced 3-4 fold.

[4] = Phosphate release assay for ATPase activity; assay type: biochemical; settings: 100 μL of 10-fold concentrated CM from COS-1 transfectants; 10× buffer with 30 mM cold ATP
[5] = Enzymatic (ATPase and ADPase) activity of site-directed mutants; assay type: biochemical
Experimental: Mutants were assayed for enzymatic (ATPase and ADPase) and platelet inhibitory (dose-dependent inhibition of platelet aggregation) activities. For one series of mutants, residues within the conserved apyrase regions were replaced with alanine.

platelets [6] = test: Ex vivo additive inhibition of platelet aggregation in patient platelet rich plasma; assay type: cell-based, human; settings: patient PRP, no SolCD39

CC(=O)Oc1ccccc1C(=O)O [Aspirin, acetylsalicylic acid, reference compound]
ex vivo platelet aggregation, collagen (murine platelets; 2.5 μg/ml collagen): strongly aggregated
ex vivo platelet aggregation, ADP (murine platelets; 10 μM ADP): strongly aggregated
ex vivo platelet aggregation, arachidonate (murine platelets; 0.1 mM sodium arachidonate): blocked
postischemic cerebral perfusion / blood flow ([1]; 24 hours after stroke induction): no improvement
intracerebral hemorrhage ([1]; following stroke, spectrophotometric): increased
cerebral infarct volume ([1]; preoperative administration, aspirin 5 mg/kg): not statistically significant

COc1ccc2c(c1)c(CC(=O)O)c(C)n2C(=O)c1ccc(Cl)cc1 [indomethacin, reference compound]
platelet responsiveness to 5 μM ADP (platelets [2]; PRP with or without 10 μM indomethacin, CM containing solCD39 from COS-1 and CHO cells): partial reversal

B1: pIL2LFlagSolCD39: N-terminally FLAG-tagged solCD39 with human proinsulin/IL2 leader and 12 mature IL2 residues (SEQ ID NO:25) (protein)
chain: MALWIDRMQLLSCIALSLALVTNSAPTSSSTKKTQLTSSGDYKDDDDKTQNKALPENVKYGIVLDAGSSHTSLYIYKWPAEKENDTGVVHQVEECRVKGPGISKFVQKVNEIGIYLTDCMERAREVIPRSQHQETPVYLGATAGMRLLRMESEELADRVLDVVERSLSNYPFDFQGARIITGQEEGAYGWITINYLLGKFSQKTRWFSIVPYETNNQETFGALDLGGASTQVTFVPQNQTIESPDNALQFRLYGKDYNVYTHSFLCYGKDQALWQKLAKDIQVASNEILRDPCFHPGYKKVVNVSDLYKTPCTKRFEMTLPFQQFEIQGIGNYQQCHQSILELFNTSYCPYSQCAFNGIFLPPLQGDFGAFSAFYFVMKFLNLTSEKVSQEKVTEMMKKFCAQPWEEIKTSYAGVKEKYLSEYCFSGTYILSLLLQGYHFTADSWEHIHFIGKIQGSDAGWTLGYMLNLTNMIPAEQPLSTPLSHST
modifications: CDS (1)..(1461)
ATPase activity, CPM × 10^3 (net counts) ([3]; 10 μL): 23.6 CPM × 10^3
ATPase activity, CPM × 10^3 (net counts) ([3]; 20 μL): 40.2 CPM × 10^3
ATPase activity, CPM × 10^3 (net counts) ([3]; 30 μL): 54.4 CPM × 10^3
ATPase activity, CPM Release × 10^3 (net counts) ([3]; 10 μL): 24.71 CPM × 10^3
ATPase activity, CPM Release × 10^3 (net counts) ([3]; 20 μL): 43.92 CPM × 10^3
ATPase activity, CPM Release × 10^3 (net counts) ([3]; 30 μL): 56.93 CPM × 10^3
ATPase activity, CPM Release × 10^3 (raw counts) [4]: 99.96 CPM × 10^3

B2: E174A: CD39 mutant, Glutamate174 replaced with alanine (protein, UniProt P49961 1-510, looked up, variant E174A)
Ectonucleoside triphosphate …: MEDTKESNVKTFCSKNILAILGFSSIIAVIALLAVGLTQNKALPENVKYGIVLDAGSSHTSLYIYKWPAEKENDTGVVHQVEECRVKGPGISKFVQKVNEIGIYLTDCMERAREVIPRSQHQETPVYLGATAGMRLLRMESEELADRVLDVVERSLSNYPFDFQGARIITGQEAGAYGWITINYLLGKFSQKTRWFSIVPYETNNQETFGALDLGGASTQVTFVPQNQTIESPDNALQFRLYGKDYNVYTHSFLCYGKDQALWQKLAKDIQVASNEILRDPCFHPGYKKVVNVSDLYKTPCTKRFEMTLPFQQFEIQGIGNYQQCHQSILELFNTSYCPYSQCAFNGIFLPPLQGDFGAFSAFYFVMKFLNLTSEKVSQEKVTEMMKKFCAQPWEEIKTSYAGVKEKYLSEYCFSGTYILSLLLQGYHFTADSWEHIHFIGKIQGSDAGWTLGYMLNLTNMIPAEQPLSTPLSHSTYVFLMVLFSLVLFTVAIIGLLIFHKPSYFWKDMV
effect on platelet responsiveness (platelets [2]; mutant): no effect
enzymatic activity of mutant ([5]; alanine replacement in conserved apyrase region): completely devoid

B3: S218A: CD39 mutant, Serine218 replaced with alanine (protein, UniProt P49961 1-510, looked up, variant S218A)
Ectonucleoside triphosphate …: B2 Ectonucleoside triphosphate … with A174E, S218A
ADPase activity retained ([5]; mutant): less than 10%

B4: Abciximab: platelet-specific chimeric antibody, glycoprotein IIb/IIIa antagonist, trade name ReoPro (antibody, chains of the INN, looked up, V domains shown)
VH: EVQLQQSGTVLARPGASVKMSCEASGYTFTNYWMHWVKQRPGQGLEWIGAIYPGNSDTSYIQKFKGKAKLTAVTSTTSVYMELSSLTNEDSAVYYCTLYDGYYVFAYWGQGTLVTVSA
VL: EIVLTQSPVTLSVTPGDSVSLSCRASRDISNNLHWFQQTSHESPRLLIKYASQSMSGIPSRFSGSGSGTDFTLSINSVETEDFGMYFCQQTNSWPYTFGGGTKLEIK
modifications: Fab
notes: platelet-specific chimeric antibody, glycoprotein IIb/IIIa antagonist, trade name ReoPro
Platelet aggregation, baseline (platelets [6]; ADP, clopidogrel, ticlopidine, abciximab groups also received aspirin): 0 ± 0 arbitrary units
Platelet aggregation, baseline (platelets [6]; Collagen): 0 ± 0 arbitrary units
Platelet aggregation, baseline (platelets [6]; TRAP): 46 ± 6 arbitrary units

B5: pIL2LTrim1: huIL2 leader joined to solCD39 with an intervening alanine residue (SEQ ID NO:27) (protein)
chain: MALWIDRMQLLSCIALSLALVTNSATQNKALPENVKYGIVLDAGSSHTSLYIYKWPAEKENDTGVVHQVEECRVKGPGISKFVQKVNEIGIYLTDCMERAREVIPRSQHQETPVYLGATAGMRLLRMESEELADRVLDVVERSLSNYPFDFQGARIITGQEEGAYGWITINYLLGKFSQKTRWFSIVPYETNNQETFGALDLGGASTQVTFVPQNQTIESPDNALQFRLYGKDYNVYTHSFLCYGKDQALWQKLAKDIQVASNEILRDPCFHPGYKKVVNVSDLYKTPCTKRFEMTLPFQQFEIQGIGNYQQCHQSILELFNTSYCPYSQCAFNGIFLPPLQGDFGAFSAFYFVMKFLNLTSEKVSQEKVTEMMKKFCAQPWEEIKTSYAGVKEKYLSEYCFSGTYILSLLLQGYHFTADSWEHIHFIGKIQGSDAGWTLGYMLNLTNMIPAEQPLSTPLSHST
Activity (pmol ATP/min/μg) × 10^3 ([3]; specific activity in COS-1 CM, concentration by ELISA): 8.38 (pmol ATP/min/μg) × 10^3
